# Assay results reported in US20090280138A1 (OXFORD BIOMEDICA UK, published 2009).
# How the values were obtained:
# [1] = target: T1, MHC class I molecule HLA-A*0201 (iTopia plate-bound monomer) (biotin (bound to streptavidin-coated plate)); test: iTopia off-rate assay, 37 C; fit R^2 0.8
# T1 construct: also called A2
# Experimental: (§1) The 9 mers were tested for Peptide Binding, Off Rate and Affinity using iTopia Epitope Discovery System in accordance with the manufacturer's instructions. Briefly, 96 well microtitre plates coated with MHC molecules representing different MHC alleles are used to identify candidate peptides. […] Determinations are performed in duplicate using an ELISA plate reader and included allele specific positive controls.
# (§2) A one-phase exponential decay curve, with a plateau given equal to 0, was generated using GraphPad Prism® software, which calculated the t1/2 and goodness-of-fit, as measured by r², for each peptide.
# [2] = target: T2, MHC class I molecule HLA-B*0702 (iTopia plate-bound monomer) (biotin (bound to streptavidin-coated plate)); test: iTopia off-rate assay, 37 C; fit R^2 0.44
# T2 construct: Commercial iTopia system; also called B7
# Experimental: as §1, §2
# [3] = target: T1, MHC class I molecule HLA-A*0201 (iTopia …); test: iTopia off-rate assay, 37 C; fit R^2 0.89
# Experimental: as §1, §2
# [4] = target: T1, MHC class I molecule HLA-A*0201 (iTopia …); test: iTopia off-rate assay, 37 C; fit R^2 0.79
# Experimental: as §1, §2
# [5] = target: T1, MHC class I molecule HLA-A*0201 (iTopia …); test: iTopia off-rate assay, 37 C; fit R^2 0.81
# Experimental: as §1, §2
# [6] = target: T1, MHC class I molecule HLA-A*0201 (iTopia …); test: iTopia off-rate assay, 37 C; fit R^2 0.96
# Experimental: as §1, §2
# [7] = target: T1, MHC class I molecule HLA-A*0201 (iTopia …); test: iTopia off-rate assay, 37 C; fit R^2 0.9
# Experimental: as §1, §2
# [8] = target: T2, MHC class I molecule HLA-B*0702 (iTopia …); test: iTopia off-rate assay, 37 C; fit R^2 0.11
# Experimental: as §1, §2
# [9] = target: T1, MHC class I molecule HLA-A*0201 (iTopia …); test: iTopia off-rate assay, 37 C; fit R^2 0.57
# Experimental: as §1, §2
# [10] = target: T1, MHC class I molecule HLA-A*0201 (iTopia …); test: iTopia off-rate assay, 37 C; fit R^2 0.75
# Experimental: as §1, §2
# [11] = target: T3, MHC class I molecule HLA-A*0301 (iTopia plate-bound monomer) (biotin (bound to streptavidin-coated plate)); test: iTopia off-rate assay, 37 C; fit R^2 0.95
# T3 construct: also called A3
# Experimental: as §1, §2
# [12] = target: T1, MHC class I molecule HLA-A*0201 (iTopia …); test: iTopia off-rate assay, 37 C; fit R^2 0.99
# Experimental: as §1, §2
# [13] = target: T1, MHC class I molecule HLA-A*0201 (iTopia …); test: iTopia off-rate assay, 37 C; fit R^2 0.64
# Experimental: as §1, §2
# [14] = target: T1, MHC class I molecule HLA-A*0201 (iTopia …); test: iTopia off-rate assay, 37 C; fit R^2 0.7
# Experimental: as §1, §2
# [15] = target: T1, MHC class I molecule HLA-A*0201 (iTopia …); test: iTopia off-rate assay, 37 C; fit R^2 0.66
# Experimental: as §1, §2
# [16] = target: T1, MHC class I molecule HLA-A*0201 (iTopia …); test: iTopia off-rate assay, 37 C; fit R^2 0.63
# Experimental: as §1, §2
# [17] = target: T3, MHC class I molecule HLA-A*0301 (iTopia …); test: iTopia off-rate assay, 37 C; fit R^2 0.96
# Experimental: as §1, §2
# [18] = target: T1, MHC class I molecule HLA-A*0201 (iTopia …); test: iTopia off-rate assay, 37 C; fit R^2 0.72
# Experimental: as §1, §2
# [19] = target: T1, MHC class I molecule HLA-A*0201 (iTopia …); test: iTopia off-rate assay, 37 C; fit R^2 0.92
# Experimental: as §1, §2
# [20] = target: T1, MHC class I molecule HLA-A*0201 (iTopia …); test: iTopia off-rate assay, 37 C; fit R^2 0.84
# Experimental: as §1, §2
# [21] = target: T1, MHC class I molecule HLA-A*0201 (iTopia …); test: iTopia off-rate assay, 37 C; fit R^2 0.08
# Experimental: as §1, §2
# [22] = target: T1, MHC class I molecule HLA-A*0201 (iTopia …); test: iTopia off-rate assay, 37 C; fit R^2 0.85
# Experimental: as §1, §2
# [23] = target: T3, MHC class I molecule HLA-A*0301 (iTopia …); test: iTopia off-rate assay, 37 C; fit R^2 0.94
# Experimental: as §1, §2
# [24] = target: T1, MHC class I molecule HLA-A*0201 (iTopia …); test: iTopia off-rate assay, 37 C; fit R^2 0.31
# Experimental: as §1, §2
# [25] = target: T2, MHC class I molecule HLA-B*0702 (iTopia …); test: iTopia off-rate assay, 37 C; fit R^2 0.69
# Experimental: as §1, §2
# [26] = target: T1, MHC class I molecule HLA-A*0201 (iTopia …); test: iTopia off-rate assay, 37 C; fit R^2 0.02
# Experimental: as §1, §2
# [27] = target: T1, MHC class I molecule HLA-A*0201 (iTopia …); test: iTopia off-rate assay, 37 C; fit R^2 0.78
# Experimental: as §1, §2
# [28] = target: T2, MHC class I molecule HLA-B*0702 (iTopia …); test: iTopia off-rate assay, 37 C; fit R^2 0.95
# Experimental: as §1, §2
# [29] = target: T1, MHC class I molecule HLA-A*0201 (iTopia …); test: iTopia off-rate assay, 37 C; fit R^2 0.33
# Experimental: as §1, §2
# [30] = target: T1, MHC class I molecule HLA-A*0201 (iTopia …); test: iTopia off-rate assay, 37 C; fit R^2 0.74
# Experimental: as §1, §2
binder,measurement,setting,value
YEINADPRL (also called Peptide No 202) [5T4 9-mer peptide 202 YEINADPRL],t½ half life,[1],0.6 h
CVNRNLTEV (also called Peptide No 39) [5T4 9-mer peptide 39 CVNRNLTEV],t½ half life,[2],0.7 h
same,t½ half life,[3],1.3 h
LDLSHNPLA (also called Peptide No 74) [5T4 9-mer peptide 74 LDLSHNPLA],t½ half life,[4],5.4 h
VRAGAFEHL (also called Peptide No 67) [5T4 9-mer peptide 67 VRAGAFEHL],t½ half life,[2],0.4 h
PALCECSEA (also called Peptide No 32) [5T4 9-mer peptide 32 PALCECSEA],t½ half life,[5],2.2 h
FEGMVVAAL (also called Peptide No 98) [5T4 9-mer peptide 98 FEGMVVAAL],t½ half life,[6],1.1 h
LSGSRLDEV (also called Peptide No 63) [5T4 9-mer peptide 63 LSGSRLDEV],t½ half life,[7],0.5 h
same,t½ half life,[8],2.9 h
LEDNALKVL (also called Peptide No 133) [5T4 9-mer peptide 133 LEDNALKVL],t½ half life,[9],5.7 h
TWLKETEVV [5T4 9-mer peptide 154 TWLKETEVV],t½ half life,[10],6.4 h
VSLTYVSFR [5T4 9-mer peptide 124 VSLTYVSFR],t½ half life,[11],0.2 h
LTHLESLHL [5T4 9-mer peptide 129 LTHLESLHL],t½ half life,[1],1 h
RSFEGMVVA (also called Peptide No 97) [5T4 9-mer peptide 97 RSFEGMVVA],t½ half life,[12],0.7 h
ALKVLHNGT (also called Peptide No 135) [5T4 9-mer peptide 135 ALKVLHNGT],t½ half life,[13],1.5 h
ARLALVLLG (also called Peptide No 10) [5T4 9-mer peptide 10 ARLALVLLG],t½ half life,[14],1.2 h
VLLELNSAD (also called Peptide No 167) [5T4 9-mer peptide 167 VLLELNSAD],t½ half life,[5],0.8 h
LYLPRDVLA (also called Peptide No 112) [5T4 9-mer peptide 112 LYLPRDVLA],t½ half life,[15],3.4 h
ELAALNLSG (also called Peptide No 60) [5T4 9-mer peptide 60 ELAALNLSG],t½ half life,[13],1.6 h
SPLVELILN (also called Peptide No 87) [5T4 9-mer peptide 87 SPLVELILN],t½ half life,[16],2.4 h
NNPWVCDCH (also called Peptide No 147) [5T4 9-mer peptide 147 NNPWVCDCH],t½ half life,[17],0.2 h
SLVSLTYVS (also called Peptide No 123) [5T4 9-mer peptide 123 SLVSLTYVS],t½ half life,[6],0.9 h
LSHNPLADL (also called Peptide No 75) [5T4 9-mer peptide 75 LSHNPLADL],t½ half life,[18],1.3 h
NRVLLELNS (also called Peptide No 166) [5T4 9-mer peptide 166 NRVLLELNS],t½ half life,[16],1.3 h
NQLAVLPAG (also called Peptide No 51) [5T4 9-mer peptide 51 NQLAVLPAG],t½ half life,[19],3.2 h
EHLPSLRQL (also called Peptide No 70) [5T4 9-mer peptide 70 EHLPSLRQL],t½ half life,[20],1.4 h
TGNQLAVLP (also called Peptide No 50) [5T4 9-mer peptide 50 TGNQLAVLP],t½ half life,[21],8.7 h
SNHFLYLPR (also called Peptide No 110) [5T4 9-mer peptide 110 SNHFLYLPR],t½ half life,[22],1.2 h
same,t½ half life,[23],0.9 h
AARTVKCVN (also called Peptide No 36) [5T4 9-mer peptide 36 AARTVKCVN],t½ half life,[24],11.1 h
same,t½ half life,[25],1.4 h
HMADMVTWL [5T4 9-mer peptide 151 HMADMVTWL],t½ half life,[20],7.9 h
SNASVSAPS (also called Peptide No 83) [5T4 9-mer peptide 83 SNASVSAPS],t½ half life,[26],15.8 h
ELILNHIVP (also called Peptide No 89) [5T4 9-mer peptide 89 ELILNHIVP],t½ half life,[27],1.1 h
PPSLQTSYV (also called Peptide No 175) [5T4 9-mer peptide 175 PPSLQTSYV],t½ half life,[21],12.7 h
SYVFLGIVL (also called Peptide No 178) [5T4 9-mer peptide 178 SYVFLGIVL],t½ half life,[25],0.9 h
same,t½ half life,[27],5.1 h
NRKGIKKWM [5T4 9-mer peptide 189 NRKGIKKWM],t½ half life,[24],10 h
LPAYVRNLF (also called Peptide No 45) [5T4 9-mer peptide 45 LPAYVRNLF],t½ half life,[28],1.7 h
SLQTSYVFL [5T4 9-mer peptide 176 SLQTSYVFL],t½ half life,[29],12.4 h
MVTWLKETE (also called Peptide No 153) [5T4 9-mer peptide 153 MVTWLKETE],t½ half life,[10],1.2 h
LLGWVSSSS (also called Peptide No 13) [5T4 9-mer peptide 13 LLGWVSSSS],t½ half life,[12],1.8 h
LVELILNHI (also called Peptide No 88) [5T4 9-mer peptide 88 LVELILNHI],t½ half life,[20],0.3 h
LVLLGWVSS (also called Peptide No 12) [5T4 9-mer peptide 12 LVLLGWVSS],t½ half life,[19],2.6 h
KVLHNGTLA (also called Peptide No 136) [5T4 9-mer peptide 136 KVLHNGTLA],t½ half life,[27],2.2 h
FLTGNQLAV (also called Peptide No 49) [5T4 9-mer peptide 49 FLTGNQLAV],t½ half life,[30],10.6 h
LTNLSSNSD [5T4 9-mer peptide 206 LTNLSSNSD],t½ half life,[14],0.7 h
